From patent US20260209318A1 (NATIONAL UNIVERSITY OF SINGAPORE, published 2026)
Where a chain is given by its changes, count along the chain named. Names and notes keep the numbering of the source.

B1: Ab50 (10x-L8N-c84) (antibody, V domains shown)
VH: QVQLVQSGAAVKKPGSSVKVSCEASGGTFSRFAVNWVRQAPGQGLEWMGRIIPLFAIANYPQRFQGRVIMSADRSTNITYMELSRLTSEDTAVYYCAREIDTVIDPAMDVFHGMEVWGQGTTVIVSS
VL: QSVLTQPPSASGTPGQRVTISCSGRSSNIGSNYVHWYQQLPGTAPKLLIYRNNQRPSGVPDRFSGSKSGTSASLAISGLRSEDEADYYCAGWDDSLSGAVFGGGTKLSVL
B2: Ab1 (B11.2) (antibody, V domains shown)
VH: EVQLVESGGGLVQPGGSLRLSCAASEIIVSRNYMTWVRQAPGKGLEWLAVLYAGGSSFYADSVKGRFTISRDNSKNTLFLQMNSLRAEDTAVYYCARDLSLSGGFDYWGQGALVTVSS
VL: DIQLTQSPSFLSASVGDRVTITCRASQGISNYLAWYQQNPGKAPKLLIYAVSTLHSGVPSRFSGSGSGTEFTLTISSLQPEDFATYYCQHLNTDSCTFGQGTKLEIK
B3: LyCov-1404 (bebtelovimab) (antibody, V domains shown)
VH: QITLKESGPTLVKPTQTLTLTCTFSGFSLSISGVGVGWLRQPPGKALEWLALIYWDDDKRYSPSLKSRLTISKDTSKNQVVLKMTNIDPVDTATYYCAHHSISTIFDHWGQGTLVTVSS
VL: QSALTQPASVSGSPGQSITISCTATSSDVGDYNYVSWYQQHPGKAPKLMIFEVSDRPSGISNRFSGSKSGNTASLTISGLQAEDEADYYCSSYTTSSAVFGGGTKLTVL
B4: SS6V11-E7 (antibody, V domains shown)
VH: QVQLQESGPGLVKPSETLSLTCTVSGGFIGPHYWSWVRQPPGKGLEWIGYIYISGSTNYNPSLKSRLTISVDMSKSQFSLTLSSATAADTAVYYCARGGGYLETGPFEYWGQGTLVTVSS
VL: DIVMTQSPLSLPVTPGEPASISCRSSQSLLQNNGYNYLAWYLQKPGQSPQLLIYLSSTRASGVPDRFSGSGSGTDFTLKISRVEAEDVGVYYCMQSLQIPGTFGQGTRLEIK
B5: Ab51 (10x-L8N-c86) (antibody, V domains shown)
VH: EVQLVESGGGLVKPGESLRLSCAASGFTFSSSSLNWVRQAPGKGLEWVSSISISGDYTYYADSVKGRFTISRDNGKNSVYLQMDRLRVEDTAMYYCARDRFGFYDMLAHSYNVGFFQSWGQGTLVAVSS
VL: DIRMTQSPSSLSASVGDSVTITCRASQDITNYLAWFQQKPGKAPKSLIYSASILQSGVPSKFSGSGSGTDFTLTISSLQPEDFATYYCQQYLTYPITFGQGTRLEIK
B6: Ab52 (10x-L8N-c89) (antibody, V domains shown)
VH: QVQLVQSGSEVKKPGSSVKVSCRASGDTFSSHSLSWVRQAPGQGLEWMGRIVPMFGITNYAQNFQGRVTFTADKSTSTAYMELSSLRSEDTAVYYCARAGTMITFGGLTDDGQLNWFDPWGQGTLVTVSS
VL: DVVLTQSPLSLSVTLGQPASISCRSSQSLEYSDGDTYLNWFHQRPGQSPRRLIYKVSNRDSGVPDRFSGSGAGTDFTLKISKVEAEDVGVYYCMQGTNWPPNFGPGTKVDIK
B7: Ab2 (H12.2) (antibody, V domains shown)
VH: EFQLVESGGRLVRPGGSLRLSCVASEIIVSRNYMSWIRQAPGKGLEWVSILYAGGTTYYADSVKGRFTISRDNSKNTLYLQLNSLRVEDTAIYYCVRPIVGGRGGMDVWGQGTTVTVSS
VL: DIQMTQSPSSLSASVGDRVTITCQASQDINKYLNWYQQKPGKAPKLLIYDASNLEPGVPSRFSGSGSGTDFVFTITSLQPEDIATYYCHYYDDVPYTFGQGTQLEIK
B8: Ab5 (10x-L8N-c25) (antibody, V domains shown)
VH: B7 VH with E1D, R10G, I28T, L51I, A53P, L78M, V87P, G101R, R103G
VL: B7 VL with S52T, H89Q

Experiments:
[1] = molecular target: T1, BQ.1.1 spike protein (SARS-CoV-2 variant BQ.1.1, UniProt P0DTC2 14-1273); assay: cell-based or functional assay
[2] = molecular target: XBB.1 spike protein (SARS-CoV-2 variant XBB.1, UniProt P0DTC2 14-1273); assay: cell-based or functional assay
[3] = molecular target: T1, BQ.1.1 spike protein; assay: pVNT (FIG. 1E, 1F, 2A, 3 cited); no direct binding assay described
[4] = molecular target: SARS-CoV-2 XBB.1 RBD (SARS-CoV-2 XBB.1, UniProt P0DTC2 319-541); assay: multiplex sVNT, RBD-coated beads, PE-hACE2 as competitor
[5] = molecular target: SARS-CoV-2 B.1.351 (beta) RBD (SARS-CoV-2 B.1.351 (beta), UniProt P0DTC2 319-541); assay: as above
[6] = molecular target: SARS-CoV-2 B.1.1.529.1 (BA.1) RBD (SARS-CoV-2 B.1.1.529.1 (BA.1), UniProt P0DTC2 319-541); assay: as above
[7] = molecular target: SARS-CoV-2 B.1.1.529.5 (BA.5) RBD (SARS-CoV-2 B.1.1.529.5 (BA.5), UniProt P0DTC2 319-541); assay: as above
[8] = molecular target: SARS-CoV-2 B.1.617.2 (delta) RBD (SARS-CoV-2 B.1.617.2 (delta), UniProt P0DTC2 319-541); assay: as above

Binder | IC50 (pVNT) [1] [ng/ml] | concentration required to effectively neutralize (pVNT) [2] [ng/ml] | concentration required to effectively neutralize (pVNT) [1] [ng/ml] | further results
B1 | ≤ 550 |  |  | 
B2 | ≤ 300 | 11.6 | 16.5 | 
B3 |  |  |  | binding result [3]: no binding
B4 |  |  |  | binding result [4]: binds; binding result [5]: binds; binding result [6]: binds; binding result [7]: binds; binding result [8]: binds
B5 | ≤ 550 |  |  | 
B6 | ≤ 550 |  |  | 
B7 | ≤ 300 | 8.5 | 16.6 | times less than the concentration of E7 [2]: ~40 times; binding result [4]: binds
B8 | ≤ 300 | 40.8 | 57.5 | times less than the concentration of E7 [2]: ~8 times; times less than the concentration of E7 [1]: ~10 times
